{"source": "patent US20100190701A1", "about": "(INDIANA UNIVERSITY RESEARCH AND TECHNOLOGY, published 2010)", "test_in_all_cases": "cell-based or functional assay", "key": {"[1]": {"target": "T1, glucagon receptor (UniProt P47871 26-477, limits assumed)", "T1 sequence (P47871 26-477 limits assumed)": "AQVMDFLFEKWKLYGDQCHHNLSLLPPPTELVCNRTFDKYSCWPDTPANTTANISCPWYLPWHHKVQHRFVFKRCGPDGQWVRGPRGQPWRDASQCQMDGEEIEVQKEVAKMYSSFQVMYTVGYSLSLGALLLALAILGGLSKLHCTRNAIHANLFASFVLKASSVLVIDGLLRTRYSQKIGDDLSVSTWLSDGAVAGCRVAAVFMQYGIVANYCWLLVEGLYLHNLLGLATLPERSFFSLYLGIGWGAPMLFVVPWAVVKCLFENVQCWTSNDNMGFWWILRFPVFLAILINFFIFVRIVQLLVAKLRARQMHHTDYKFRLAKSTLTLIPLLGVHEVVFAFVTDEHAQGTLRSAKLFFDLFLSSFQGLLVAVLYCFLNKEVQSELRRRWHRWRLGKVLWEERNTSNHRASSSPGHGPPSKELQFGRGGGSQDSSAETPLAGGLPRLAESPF"}, "[2]": {"target": "T2, GLP-1 receptor (UniProt P43220 24-463, limits assumed)"}, "[3]": {"target": "T1, glucagon receptor", "remark": "listed apart in the source"}, "[4]": {"target": "T2, GLP-1 receptor", "remark": "listed apart in the source"}, "[5]": {"target": "T2, GLP-1 receptor", "remark": "listed apart in the source"}, "[6]": {"target": "T2, GLP-1 receptor", "remark": "listed apart in the source"}}, "note": "Like-named read-outs stand apart in the source and are kept apart here. Bridge positions count the residues as written; N and C are the ends. Square brackets hold non-standard residues; d marks the D form. Ends that are not written are not given here. Nle = CCCC[C@H](N)C(=O)O; Orn = NCCC[C@H](N)C(=O)O; PEG = not defined here; Aib = CC(C)(N)C(=O)O"}
{"binder": "HSQGTFTSDYSKYLDSRRAQDFVQWLVKGGPSSGAPPPS-NH2", "note": "[-VKGG30 PSSGAPPPS (SEQ ID NO: 524)]", "values": [{"measurement": "EC50", "setting": "[1]", "result": 1.16, "unit": "nM"}, {"measurement": "EC50", "setting": "[2]", "result": 0.21, "unit": "nM"}]}
{"binder": "HSQGTFTSDYSKYLDSRRAQDFVQWLMKGGPSSGAPPPS-NH2", "note": "[-MKGG30 PSSGAPPPS (SEQ ID NO: 523)]", "values": [{"measurement": "EC50", "setting": "[1]", "result": 0.61, "unit": "nM"}, {"measurement": "EC50", "setting": "[2]", "result": 0.8, "unit": "nM"}]}
{"binder": "HSQGTFTSDYSKYLDSRRAQDFVQWLMNTGPSSGAPPPS (C-terminal amide)", "note": "[Glucagon-Cex]", "values": [{"measurement": "EC50", "setting": "[1]", "result": 0.14, "unit": "nM"}]}
{"binder": "H[Aib]QGTFTSDYSKYLDEQAAKEFICWLMNT-NH2", "note": "[Chimera AIB2, Cys24 (SEQ ID NO: 486), parent w/o PEG]", "values": [{"measurement": "% Potency Relative to Native", "setting": "[3]", "result": 15.4, "unit": "%"}, {"measurement": "% Potency Relative to Native", "setting": "[4]", "result": 161, "unit": "%"}]}
{"binder": "HSQGTFTSDYSKYLEERRAQDFVQWLMNT-NH2", "note": "[E15, E16 Gluc-NH2]", "values": [{"measurement": "cAMP Induction, Percent Potency Relative to Native Ligand", "setting": "[5]", "result": 9.2, "unit": "%"}]}
{"binder": "HSQGTFTSDYSKYLDERRAKDFVQWLMDGGPSSGAPPPS-NH2", "note": "[E16K20-MDGG30 PSSGAPPPS (SEQ ID NO: 526)]", "values": [{"measurement": "EC50", "setting": "[2]", "result": 0.02, "unit": "nM"}]}
{"binder": "H[Aib]QGTFTSDYSKYLDEQAAKEFIC(PEG)WLMNT-NH2 (not fully specified; reading uncertain)", "note": "[Chimera AIB2, Cys24 (SEQ ID NO: 486), parent w/PEG]", "values": [{"measurement": "% Potency Relative to Native", "setting": "[3]", "result": 2.6, "unit": "%"}, {"measurement": "% Potency Relative to Native", "setting": "[4]", "result": 82.5, "unit": "%"}]}
{"binder": "HSQGTFTSDYSKYLDSRRAQDFVQWLMNGGPSSGAPPPS-NH2", "note": "[-MNGG30 PSSGAPPPS (SEQ ID NO: 522)]", "values": [{"measurement": "EC50", "setting": "[2]", "result": 0.31, "unit": "nM"}]}
{"binder": "HSQGTFTSDYSKYLDSRRAQDFVQWLMDGGPSSGAPPPS-NH2", "note": "[-MDGG30 PSSGAPPPS (SEQ ID NO: 525)]", "values": [{"measurement": "EC50", "setting": "[1]", "result": 0.12, "unit": "nM"}, {"measurement": "EC50", "setting": "[2]", "result": 0.13, "unit": "nM"}]}
{"binder": "HS[Orn]GTFTSDYSKYLDERRAQDFVQWLMNT-NH2", "note": "[Orn3, E16 Gluc-NH2]", "values": [{"measurement": "cAMP Induction, Percent Potency Relative to Native Ligand", "setting": "[6]", "result": 0.1, "unit": "%"}]}
{"binder": "HAEGTFTSDVSSYLEGQAAKEFIAWLVKGG-NH2", "note": "[GLP-1-VKGG30 (SEQ ID NO: 527)]", "values": [{"measurement": "EC50", "setting": "[2]", "result": 0.025, "unit": "nM"}]}
{"binder": "H[Aib]QGTFTSDYSKYLDEQAAKEFIC(PEG)WLMNT-NH2 (lactam 16-20; not fully specified; reading uncertain)", "note": "[Chimera AIB2, Cys24 Lactam (SEQ ID NO: 504), parent w/PEG]", "values": [{"measurement": "% Potency Relative to Native", "setting": "[3]", "result": 9.2, "unit": "%"}, {"measurement": "% Potency Relative to Native", "setting": "[4]", "result": 38, "unit": "%"}]}
{"binder": "H[Aib]QGTFTSDYSKYLDEQAAKEFICWLMNT-NH2 (lactam 16-20)", "note": "[Chimera AIB2, Cys24 Lactam (SEQ ID NO: 504), parent w/o PEG]", "values": [{"measurement": "% Potency Relative to Native", "setting": "[3]", "result": 114, "unit": "%"}, {"measurement": "% Potency Relative to Native", "setting": "[4]", "result": 230, "unit": "%"}]}
{"binder": "HS[Nle]GTFTSDYSKYLDERRAQDFVQWLMNT-NH2", "note": "[NLeu3, E16 Gluc-NH2]", "values": [{"measurement": "cAMP Induction, Percent Potency Relative to Native Ligand", "setting": "[6]", "result": 20.6, "unit": "%"}]}
